Test [1] concerns the target T1, human VPAC2 receptor (human, UniProt P41587 24-438).
T1 sequence (looked up): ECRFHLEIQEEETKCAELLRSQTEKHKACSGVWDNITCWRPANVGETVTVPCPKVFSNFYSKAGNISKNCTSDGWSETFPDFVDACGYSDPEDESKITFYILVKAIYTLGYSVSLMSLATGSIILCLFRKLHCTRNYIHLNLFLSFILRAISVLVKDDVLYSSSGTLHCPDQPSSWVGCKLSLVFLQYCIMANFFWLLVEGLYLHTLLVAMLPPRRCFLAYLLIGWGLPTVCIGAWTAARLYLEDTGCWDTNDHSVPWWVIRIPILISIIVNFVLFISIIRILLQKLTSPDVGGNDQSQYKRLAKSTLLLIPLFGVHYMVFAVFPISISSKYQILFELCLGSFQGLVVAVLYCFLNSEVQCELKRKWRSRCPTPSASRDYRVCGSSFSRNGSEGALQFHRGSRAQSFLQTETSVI
Kind of test: cell-based or functional assay.

The next test addresses T2, rat VPAC1 receptor (rat, UniProt P30083 31-459).
T2 sequence (looked up): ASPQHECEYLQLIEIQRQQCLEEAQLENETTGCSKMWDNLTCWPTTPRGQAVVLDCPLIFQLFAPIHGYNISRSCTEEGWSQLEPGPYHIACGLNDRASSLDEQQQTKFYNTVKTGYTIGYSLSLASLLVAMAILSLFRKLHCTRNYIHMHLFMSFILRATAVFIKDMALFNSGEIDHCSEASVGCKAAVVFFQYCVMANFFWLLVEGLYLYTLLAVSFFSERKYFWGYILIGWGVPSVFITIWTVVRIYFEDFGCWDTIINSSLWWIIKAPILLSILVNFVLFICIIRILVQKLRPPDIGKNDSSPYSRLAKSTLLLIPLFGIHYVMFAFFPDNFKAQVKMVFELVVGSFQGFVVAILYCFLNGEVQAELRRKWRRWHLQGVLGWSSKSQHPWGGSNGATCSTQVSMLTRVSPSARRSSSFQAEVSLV
Kind of test: cell-based or functional assay.

The next test addresses T3, rat VPAC2 receptor (rat, UniProt P35000 23-437).
T3 sequence (looked up): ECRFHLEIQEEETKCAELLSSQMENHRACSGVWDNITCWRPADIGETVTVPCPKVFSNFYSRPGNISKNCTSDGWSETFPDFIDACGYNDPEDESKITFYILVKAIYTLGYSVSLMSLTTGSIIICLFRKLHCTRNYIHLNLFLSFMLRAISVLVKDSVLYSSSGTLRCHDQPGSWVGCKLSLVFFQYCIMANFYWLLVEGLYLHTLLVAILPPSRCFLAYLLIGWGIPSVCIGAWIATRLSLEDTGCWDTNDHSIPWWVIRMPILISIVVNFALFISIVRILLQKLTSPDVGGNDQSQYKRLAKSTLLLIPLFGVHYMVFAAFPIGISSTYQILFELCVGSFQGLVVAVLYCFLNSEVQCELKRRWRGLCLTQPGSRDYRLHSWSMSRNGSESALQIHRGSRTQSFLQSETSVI
The test can be described thus: cell-based or functional assay.

Test [2] addresses T1, human VPAC2 receptor. The test can be described thus: filter binding, VPAC2 cell membranes, displacement of 125I-VIP. The protocol:
Binding assays: Membrane prepared from a stable VPAC2 cell line (see Example 3) or from cells transiently transfected with human VPAC1 or PAC1 are used.
The assay plate is filled with 25 μL assay buffer, 25 μL membranes (2.5 μg) suspended in assay buffer, 25 μL agonist in assay buffer, and 25 μL tracer (about 40000 cpm) in assay buffer. The filled plate is incubated for 1 hour with shaking.
The transfer from assay plate to filter plate is conducted. The blocking buffer is aspirated by vacuum filtration and washed two times with flush buffer. 90 μL is transferred from the assay plate to the filter plate. The 90 μL transferred from assay plate is aspirated and washed three times with 200 μL flush buffer. The plastic support is removed. It is dried for 1 hour at 60° C. 30 μL Microscint is added. The count is performed.

The target in test [3] is T4, human VPAC2 receptor (human), P41587.
T4 chain: T1 sequence (looked up)
Described as above. The settings on record: remark: other sources report otherwise.

Numbering of substitutions follows the chain as printed.

On to HSDAVFTEQYTRXRXQLAAXXYLQSIKXXGGPSSGAPPPC (C6-HSDAVFTEQY(OMe)TRAibRAibQLAAAibOrnY(OMe)LQSIKAibOrnGGPSSGAPPPC(PEG40K)-NH2) [P417], for which, in the test with human VPAC2 receptor [1], the “Human VPAC2 Receptor: Alphascreen (EC50; nM)” value is 14.7 nM. Also, the “Rat VPAC1 Receptor: DiscoveRx: (EC50; nM)” value (shortened to “Rat VPAC1 Receptor”) with rat VPAC1 receptor came to 232 nM. In the test with rat VPAC2 receptor, the “Rat VPAC2 Receptor: DiscoveRx: (EC50; nM)” value (from here on “Rat VPAC2 Receptor”) worked out at 8.7 nM. Also, the IC50 with human VPAC2 receptor [2] is 24.1 nM.

B1: P574 (peptide)
peptide: HSDAVFTEQYTXLRXQLAXXXYLQXIXXGGPSSGAPPPCC
modifications: C6-HSDAVFTEQY(OMe)TOrnLRAibQLAAbuAibOrnY(OMe)LQAibIOrnOrnGGPSSGAPPPC(PEG20K)C(PEG20K)-NH2
Turning to B1, in the test with human VPAC2 receptor [1], the “Human VPAC2 Receptor: Alphascreen (EC50; nM)” value came out at 21.2 nM and the “Human VPAC2 Receptor: DiscoveRx (EC50; nM)” value stood at 36.1 nM. Also, the “Rat VPAC1 Receptor” value with rat VPAC1 receptor stood at 163 nM. In addition, in the test with rat VPAC2 receptor, the “Rat VPAC2 Receptor” value worked out at 33.8 nM. In the test with human VPAC2 receptor [2], this molecule had an IC50 of 32.3 nM.

B2: P590 (peptide)
peptide: B1 peptide with A18X, X19A, X25S
modifications: C6-HSDAVFTEQY(OMe)TOrnLRAibQLAbuAAibOrnYLQSIOrnOrnGGPSSGAPPPC(PEG20K)C(PEG20K)-NH2
B2: the “Human VPAC2 Receptor: Alphascreen (EC50; nM)” value in the test with human VPAC2 receptor [1] is 4.1 nM. In addition, in the test with rat VPAC1 receptor, the “Rat VPAC1 Receptor” value came to 245 nM. The “Rat VPAC2 Receptor” value with rat VPAC2 receptor came out at 6.9 nM. The same molecule gave an IC50 with human VPAC2 receptor [2] of 7.4 nM.

B3: P582 (peptide)
peptide: B1 peptide with X25S
modifications: C6-HSDAVFTEQY(OMe)TOrnLRAibQLAAbuAibOrnY(OMe)LQSIOrnOrnGGPSSGAPPPC(PEG20K)C(PEG20K)-NH2
Take B3: the “Human VPAC2 Receptor: Alphascreen (EC50; nM)” value with human VPAC2 receptor [1] was 20.3 nM. The “Rat VPAC1 Receptor” value with rat VPAC1 receptor came to 137 nM. The “Rat VPAC2 Receptor” value with rat VPAC2 receptor stood at 31 nM. The molecule also gave an IC50 in the test with human VPAC2 receptor [2] of 48.3 nM.

B4: P602 (peptide)
peptide: B1 peptide with L23X, X25S
modifications: C6-HSDAVFTEQY(OMe)TOrnLRAibQLAAbuAibOrnYAibQSIOrnOrnGGPSSGAPPPC(PEG30K)C(PEG30K)-NH2
Turning to B4, in the test with human VPAC2 receptor [1], the “Human VPAC2 Receptor: Alphascreen (EC50; nM)” value came out at 42.1 nM and the “Human VPAC2 Receptor: DiscoveRx (EC50; nM)” value amounted to 7.2 nM. The “Rat VPAC1 Receptor” value with rat VPAC1 receptor is 209 nM. The “Rat VPAC2 Receptor” value with rat VPAC2 receptor stood at 36.9 nM. This molecule also had an IC50 in the test with human VPAC2 receptor [2] of 28 nM.

B5: P533 (peptide)
peptide: HSDAVFTEQYTXLRXQXAAXXYLQSIXXGGPSSGAPPPS
modifications: here or on the partner: C6-HSDAVFTEQY(OMe)TOrnLRAibQK(WPEG40K)AAAibOrnYLQSIOrnOrnGGPSSGAPPPS-NH2
In turn, B5 displayed an IC50 in test [3] of 959 nM.
For the molecule HSDAVFTEQYTXLRXQVAAXXYLQSIXXGGPSSGAPPPS (C6-HSDAVFTEQY(OMe)TOrnLRK(CO(CH2)2SPEG40K)QVAAAibOrnYLQSIOrnOrnGGPSSGAPPPS-NH2) [P485], the “Human VPAC2 Receptor: Alphascreen (EC50; nM)” value with human VPAC2 receptor [1] worked out at 44.5 nM. Moreover, in the test with rat VPAC1 receptor, the “Rat VPAC1 Receptor” value came to 735 nM. Moreover, in the test with rat VPAC2 receptor, the “Rat VPAC2 Receptor” value is 42.5 nM. The molecule also showed an IC50 with human VPAC2 receptor [2] of 17.3 nM.
As for HSDAVFTEQYTXLRXQVAAXCYLQSIXXGGPSSGAPPPS (C6-HSDAVFTEQY(OMe)TOrnLRAibQVAAAibC(PEG40K)YLQSIOrnOrnGGPSSGAPPPS-NH2) [P460], the “Human VPAC2 Receptor: Alphascreen (EC50; nM)” value in the test with human VPAC2 receptor [1] stood at 430 nM. In addition, in the test with rat VPAC1 receptor, the “Rat VPAC1 Receptor” value was greater than 1000 nM. In addition, the “Rat VPAC2 Receptor” value with rat VPAC2 receptor is 1160 nM. Moreover, the IC50 in the test with human VPAC2 receptor [2] was 914 nM.

B6: P580 (peptide)
peptide: HSDAVFTEQYTXLRXQLAXXXYLQXIXXCGGPSSGAPPPC
modifications: C6-HSDAVFTEQY(OMe)TOrnLRAibQLAAbuAibOrnYLQAibIOrnOrnC(PEG20K)GGPSSGAPPPC(PEG20K)-NH2
Turning to B6, the “Human VPAC2 Receptor: Alphascreen (EC50; nM)” value with human VPAC2 receptor [1] turned out to be 10.9 nM. Besides, in the test with rat VPAC1 receptor, the “Rat VPAC1 Receptor” value is 1.1 nM. In the test with rat VPAC2 receptor, the “Rat VPAC2 Receptor” value amounted to 11.9 nM. For the same molecule, in the test with human VPAC2 receptor [2], the IC50 came out at 20.7 nM.

Broadly, the IC50 is the point on the concentration scale where inhibition reaches its midpoint. The low end stands for greater potency in that assay, the high end for weaker potency in that assay.
